Results from the supplement of paper PMC10724198.
± gives the standard deviation of the averaged measurements.

System: Saccharomyces cerevisiae
Assay: protein stability index of tFT-peptide fusion (C-terminal peptide) (PSI (0-1 scale)); higher = more stable (slower turnover)
Conditions: genetic background: wild type; temperature: 30 C
Description: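 Multiplexed protein stability (MPS) profiling in S. cerevisiae. Random 12-aa peptides (tFT-X12 library) are fused to the C-terminus of a sfGFP-mCherry tandem fluorescent timer, after mCherry and a GGGS linker. Cells are FACS-sorted into 8 mCherry/sfGFP bins and deep-sequenced. The protein stability index (PSI) is the read-weighted bin average, scaled from 0 (unstable) to 1 (stable). Only peptides with >10 reads are reported; cells were grown at 30 °C in SC-His with glucose.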
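Also: PSI is a weighted mean of sequencing reads over stability bins, variants kept only with over 10 reads, mCherry proximal and sfGFP distal, peptide attached via GGGS linker.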

Sequence	protein stability index
GSGRRGLMGRKS	0.728 ± 0.011
GSGVVCTMGWRL	0.6856 ± 0.0068
GSHRSTWGLVPL	0.696 ± 0.067
GSLCAVWWCWRG	0.6372 ± 0.0052
GSLRLASAHGLV	0.729 ± 0.02
GSPMRKHVTLLP	0.808 ± 0.12
GSPPHTLPLHGR	0.67 ± 0.03
GSRCSEAQDRSD	0.713 ± 0.015
GSRFCPHVGICI	0.657 ± 0.019
GSSPLLFSLLES	0.751 ± 0.076
GSSRMACYCKHS	0.644 ± 0.051
GSSSSLDVFVVF	0.699 ± 0.085
GSTLGGMAWGAR	0.682 ± 0.014
GSTLWGMAWGAR	0.694 ± 0.017
GSTRWGSAEGRG	0.662 ± 0.21
GSVCCLSLHCFV	0.62 ± 0.033
GSYIPSPKKNKC	0.7086 ± 0.0029
GSYRSSPFKDPK	0.686 ± 0.037
GTDEWKRKYNTP	0.695 ± 0.045
GTDSFQTTRRLI	0.663 ± 0.022
GTGPPPSPPSLP	0.683 ± 0.091
GTHFRPAREERV	0.708 ± 0.039
GTHGQAQRVAGQ	0.7248 ± 0.0061
GTIEFNKIEDFW	0.715 ± 0.039
GTLAAGGGVPMS	0.734 ± 0.034

Sequence	protein stability index
GTLARFLTHFNP	0.666 ± 0.048
GTLRLLYLKTSK	0.651 ± 0.009
GTLSLAACLSEN	0.657 ± 0.077
GTRAVSKLNPDA	0.701 ± 0.02
GTRRHSFCSGTG	0.703 ± 0.054
GTSERKVLNRKR	0.764 ± 0.015
GTSVGVRRKGVK	0.708 ± 0.033
GTTLDEPGESGR	0.621 ± 0.023
GVAAGPAVRVLT	0.669 ± 0.032
GVAGGLLLRGGR	0.673 ± 0.13
GVAYSIVKKKKK	0.684 ± 0.036
GVCTGSFVFYLT	0.686 ± 0.016
GVEAGMGRTLWL	0.792 ± 0.099
GVEGAVGGRRGA	0.703 ± 0.029
GVEGLGAFVTVQ	0.702 ± 0.0089
GVENAHLFYLYL	0.63579 ± 0.00058
GVEVCEGDGPLK	0.669 ± 0.015
GVGGGSSWVGYG	0.912 ± 0.063
GVGGGVRLVVSR	0.633 ± 0.052
GVGGRVRDALGM	0.68 ± 0.066
GVGLIGVLTCGL	0.636 ± 0.02
GVGLVLLGVVSG	0.513 ± 0.025
GVGRGCVLNGGG	0.743 ± 0.018
GVGVWQWERGRG	0.789 ± 0.1
GVICALPPVVGR	0.685 ± 0.071

Sequence	protein stability index
GVLGCNDGSVVE	0.663 ± 0.059
GVLRPVWVLGGS	0.624 ± 0.017
GVLSLFLLDTSQ	0.7376 ± 0.0061
GVLVESGSVESR	0.744 ± 0.12
GVPALLVGIDLV	0.668 ± 0.027
GVPFSLGPPPSR	0.669 ± 0.022
GVPVVCGPPPFL	0.748 ± 0.091
GVQEGGGGARGG	0.633 ± 0.023
GVRAPPSPVSGL	0.6711 ± 0.0066
GVRGGGAVGGLR	0.65 ± 0.056
GVRHPRLMFSRS	0.687 ± 0.02
GVRIGYCIVRDV	0.647 ± 0.022
GVRIVRRGLRRV	0.731 ± 0.013
GVRKGEESGVGW	0.717 ± 0.0085
GVSAGGAGLGGS	0.773 ± 0.0031
GVSAGLRGGGGA	0.651 ± 0.022
GVSHKKGCPWLG	0.641 ± 0.043
GVSKALAAAVDA	0.6874 ± 0.0061
GVSVSPVVHFFL	0.73 ± 0.062
GVSWVGGRVFGG	0.6964 ± 0.0051
GVVGGGVQGGMG	0.624 ± 0.0046
GVVRTSWGEALR	0.7065 ± 0.0061
GVVRWGRVVGCF	0.631 ± 0.084
GVWQGVGVRGWG	0.83 ± 0.096
GWCALGVRAILY	0.651 ± 0.0097

Sequence	protein stability index
GWCRVFLNFLMW	0.61142 ± 0.00012
GWCVGHSVLVVE	0.618 ± 0.021
GWGCARRRGGRV	0.683 ± 0.015
GWGGEGQNGSEG	0.638 ± 0.019
GWGGFQFECGWV	0.651 ± 0.059
GWGGGSMDLRDR	0.702 ± 0.011
GWGGSIGEEWGG	0.687 ± 0.022
GWGPWGRVGRGG	0.688 ± 0.032
GWLGGGGVVWWG	0.718 ± 0.017
GWMLGAVRRGVI	0.694 ± 0.032
GWMSGTPEFLGS	0.707 ± 0.025
GWPVSICGSTQN	0.754 ± 0.058
GWQLWGFCLSGP	0.637 ± 0.032
GWRGGGSDGGLR	0.718 ± 0.086
GWSCRGVGGGLG	0.708 ± 0.045
GWVGGCGCGRGI	0.694 ± 0.034
GWVRCGGGAGVG	0.622 ± 0.056
GWVWILGRGRGR	0.637 ± 0.044
GWWGGCRSGVPE	0.672 ± 0.069
GYADDEEEYVTL	0.737 ± 0.023
GYETTQSGFLSS	0.5887 ± 0.0022
GYLVPLPSSGSS	0.661 ± 0.057
GYNTSMHVQYQT	0.764 ± 0.02
